Results taken from the domain aggregation screens of Martell et al. (2025).

Experiment: soluble fraction after stress (log2 fold change); higher = more stays soluble; pooled small domains, quantitative proteomics
Conditions: stress: pH 4
Summary of the method: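 After pH 4 stress, pooled custom libraries of small protein domains were quantified with high-throughput quantitative proteomics. Aggregation propensity is taken from the fold change in each domain's soluble amount following the acid stress. The scale is log2, where higher values mean more stayed soluble.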

Sequence | soluble fraction (log2)
HMKEGGREEMSEIVERYGDERALMANITSVQNLMNNMKWTLDQALDALGIKGKERTLITQQLQ | -0.145
HMKEIATKSELTYFIQRLLDLLEETNFFNPEERKKAMINHIEAIFRRNNLTLQELNMLHGIITSITR | -1.38
HMKEIGGGPASKFIYYLIKTKHPIEQGDLIGITHLPRRTVQSAIEDLKNQGFIIERNSLDDSRRKVYYPVK | 0.22
HMKEIKRLVELSPGRYFIEGATNIRVFGINGSLLLDTKGETVDLSDLAKGVYLLKTDGVTYKVL | -0.216
HMKEIYIDRGKEALEKELRKRKIPFQEFLSKENTNLLFDTLKIPSHDLEELYLEIGNGKHAASTVVNTVY | -0.0339
HMKEKQLMTLDDDLYAFLLKHPGIIQKDIYNHFPYDIKGVIADTLYAWDKTGKIKRTKSGNSYIIYT | -0.141
HMKELAADFSRRIINARTSKGWSQADLGQRMAETINVIKSAESGKPPTDAVVKKFETVLGVILM | 0.22
HMKELLDRIFLHETMRRVSQDATITFSKKVYEVPQKFIGRQVTVQYDPEDLSRVYVKDLNFPEPVMVYPVQ | 0.0825
HMKELTPEQLQHNWNNLRQFIDVNFSGDRLGGLNKMYDYFEERMMFAPASGKQHYHNAFAGGYVEHVMHV | 0.0505
HMKEPGFAPPVRALAAAPITVLAQVAGTNPGEIRARLRAAGYPVASDQQSVQSLVGGDLKAQIGVLNRILA | -0.0568
HMKEQIKVPDLSNKTPEEAKKELNTLGLGARKGGEESSDTVEEGLITRQEPAAGEQVDKNTQILFYVSTGK | 0.0545
HMKEQLLLGFKVRSLRGIDLGFVKFIEGSAFQSFLKTDLTIIPNVPNYVKKIDNVKKIILVDWESD | -1.54
HMKEQYTELDWDKVQVNDKVMIKDLNQQVTILSLPDKNNALYIQMGMIKTKVKKEKLAVYNPQLA | -0.103
HMKERVSWDERLERFAKHITENESLPYPSSKEYAWFEENKALYDAGELEPVRAQSFAFLLKIMRRMNL | 0.0752
HMKETIIPELLQNELDKNSELNDKFNTFSPYKQREFIEYIITAKQEKTQISRLQKVILMILEGRGLNN | -0.491
HMKEVELENMIKAKGFKDAAVLVDERSVTVIVESERLAAGDSASIKELVSRGTGVDPQNVVII | -0.295
HMKEYPEVITTSRLNVRTGPGTGYQRLGTLDQNLRVLVLTRQQGWAQIRGMLNGETVIGWVNDYYLQAID | -0.259
HMKFINISIDKSGNLFINKKSIKFQDLKYNVVNLVDESKNLVVLNADENISHGYVISVLDVLRSIDGLKLA | -0.802
HMKFNEKQNEVRIAIMNFIIDNKRPFHMKQDGYDALEGITLSGRHEFQDILDVLHSRDGFSADEEGNINF | -1.69
HMKFPIITAKQDSDGKFYWAQTTDKGKTYTFILDGDGKKFPIGGTMPDVKINENGYWSVNGSSTGVLANDL | -0.295
HMKFSVEEQFKKSFPKNTYETFSETSLKGVYEVYNGKQVYYYLPVNDVLLLGSIVTKDGKNLTQESNSKK | -0.0849
HMKGIVFTEFLDLVEERFGLEMVDAIISQSKLESKGVYTSIGTYSFSELLQLLQNLKIQTGISIDNLLLI | -1.51
HMKGKIYFFEEGVDRVGGVERVISTLANEFSKKYKVNVISFYKTRKETFFKYNSDIDITYLSK | -0.264
HMKGLDRATNKALLLKHIIDNGSTGTRFSELRQVLPSLTRGSISSLLIELRSEGKIHSIGVTRNARWYPTE | -0.309
HMKGLKERLLYFIEYKGLPVQMFEKIVGLSNAAVSKMGDNTRRSTIDKISKSFPELDVNWLLTGQGEMLSY | 0.296

Sequence | soluble fraction (log2)
HMKGPAFAKIDLTQLPAGLTSFLNTNAAGFKLDYAVAITKDSVIIEYHVGVTIGTAKKEFHLDPNFQLLP | -0.1
HMKGPLKDLGPDPVTGKSILVKDGKFGTYVTDGETNATLRRGDIVELLTLERGMELLAEKRARATQ | -0.0516
HMKGTVKFFNESKGFGFITEEGTNKEHFVHVSGLVDEIRENDEVEFDLQDGRKGLNAVNVRV | 0.0618
HMKGVENLSDIDIQKALNNARANLSKNKAKLEQAGDDEKKKASALAMIQKWETTKKAIEEEIEARKKKSLN | -0.088
HMKHAIKEKIRNEYVHGYLNEEGYRVMPTLDELIRKYEVPASSTYRASSKEGWKKQKEAFLEHLRGEIDA | -0.0601
HMKHFFIIAGGKIEDAFAIEVLKGFAEKTVIAADSGMEFLRRNEIVPQVIIGDFDSVSKETLEWFQKK | 0.22
HMKHKGILTTWNDDRGFGFITPKEGKEPVFVHISAFARGQGRPVLNASLTYRLVRDDQQRPRAEAVRL | 0.189
HMKHKHHIIPKHKGGTDHPDNLIELTVEQHAKAHWVEFMLDGREEDYWAWKGLEGVASKKDIIYALSKR | -0.313
HMKHSEAIELGKRMLSQALQDVSLVLKKIPEERLQAVAAELNLKTPDELFEKIGLGERLAALVARRLLP | 0.0472
HMKHTQTDEGELLSTLRTLFPNSSSSSLRKMLTQGRILVNQEVVHRAKHALQAGDEIEVLARQ | 0.0825
HMKHVDLDNNERYIYGIIGSTKIHVDEVVEKSGMETKHVMAILTNLELKEAIKGIPGGFYLR | -1.19
HMKHVENLSDEKTIQAIQENPYMQYLLGLSKFTEKPVFVPELFVLIRKRLDQDFFNMLTLILAEADG | -0.778
HMKHYIDFIAEQLKTLTAIPSPSGYTKNATDYLMKLLQDMGYEPKLSRKGNVFVTLGGDGEPLVLAAHVD | -0.112
HMKIDELKAYLFQSVRVKNPHTQEYDTLKIIELNYYQDKIKAKLKNSDDDYITEMIFESIKHLQNFLG | -1.98
HMKIEEIAYSTFISMLDKGEVSKVELKDNLIYIETKADDKTIYTTGRMEDPDLTNRLIEAGVDFTEIE | -0.73
HMKIELSDNEKIIYDLLSSQHVLLSEIKDKAGLSNKAWDKSTKSLRKLGLIAVEKKDDDIYISKL | 0.247
HMKIGIYPGTFDPITHGHTDIIRRSLRVFDKVVVAVAPNPSKHPLFTLTERLEMIRIVMKELEHVEVT | 0.117
HMKILVTDDNIRIDKYLTTQTEYSRSTIQKMIESNNILVNNKPTKSNYILRNNDEITIDENFNEE | -0.0512
HMKININEASRYELMTIGGLDAGRADMLMQYRQKREISSADELKGINGFASYDTAKLQKSFEISP | 0.00275
HMKIRKAVIPAAGLGTRVLPASKSIPKEMLPIVDKPVIQYIVEEAVKAGITEILIITGRGKGAIEDHFDRS | 0.0275
HMKISIDNPSVLLDKLATLFPDTSKNKLRKMLTEGRIYVNDNIEHRAKRELINGDTVKILDKTTSKE | -0.0228
HMKITAPLPGTITEIKVKVGDTVKNGDTVVVLEAMKMQNNIEAESNGTVTAIFVNKGDTVMEGDALMTI | 0.22
HMKITTKNYFKAIAEVGVENLPAALKKSHDLIEERTSKGADWSVYEHDAEVRRVFDLTFEKLFEFIDQ | -1.23
HMKKAITMGDIITVKELSEKIGIQVAEIIKKLMGLGILATINKELDYDTANVIASEFHIELERK | 0.0872
HMKKASLSTVEKKLMKQNYSNDTMENRLARVESYMFGTVFSSDDTQTRIDRISSAYNAQKSS | -0.197

Sequence | soluble fraction (log2)
HMKKDLATYAYEHIKQMVIDRELMPGERIQQEVLARELGISRTPLVTALNRLASENLVELEANKGFSVRRF | 0.429
HMKKEETEAEELEEKFTSAQIKQAYGILNDPRYKQGNYSGAVNVINKIAPGLADHPDVKNALKRANEEL | -0.323
HMKKGRIGSIIQYVREHPGVSSSEIITGLGLDISPATIRRDLTLLVAENKLSVEGQNKGTKYFVSPTYDMF | 0.271
HMKKIDVEVVRSQLIAWMADNGKSQAEVSKSMGISASALSMFIKGTYTGDNEQIGRKAAALMDLVHRQSA | 0.189
HMKKILITGNSGYIGSHLSKMLENDYEVHGLDIRQPQHPVAKFYEQDINRPINIEEEYDAVIHLAALV | -0.104
HMKKILLGDVNLDGKVDVNDVTLLQRYIAGETEVITSKDALTATNFNKDGNIDVLDVTDIQTFIANSE | 0.00934
HMKKLTNKQIIFFAEKLAHHSDFASKYSKVGESYEEFAIRLEKELNTPQKVEFYSSYLEKVGFK | -0.78
HMKKPKTVLSEEQKEFIINQAQDGVSAYDIARILFPSVNVTNLSKEVIDVAEFIRDTDIKLLADSE | -0.132
HMKKPRKTSRKSIENAAIFYLQRFSSSIENLRRVLMRRVYRSAQYHNTKPEEDAKIVDSIIYRLIETGVL | -0.0658
HMKKSRLHSVLEEIPGIGEKRRKILIKHFGTVEAIKKSSLEELARIKGMNRRAAQNVLEYLK | 0.407
HMKKVIKIEENVSLQKLAALMSLKVTDVLMRLLSMGMSGVNINSTIDADTAKILASEFGWTVED | -0.669
HMKKVKVPNVVGMSLKEARDALSAVNIAVNQVAGSVEDKSVVTEQSLKAGDEVDEGSSLNLTTEYK | 0.412
HMKKYLTETEAAAYLNMPVEEIKAAITKGEIEQYVKTSSGYTISVEELDKFFGQKAYDTMTSNNS | -0.43
HMKLASIGDNIHTLRKNKGLTQSQLAGKLGVNVDTISNYEKGVSTPDFDIVEKLVNIFNVDAHSLLFK | -0.351
HMKLEKKWIEAVEKYRRYVLSTGIKHVQKPIEFENFRLGQWYADVRQSYRRGTLSKEKLLEIREINPDFPN | 0.324
HMKLFGTPGSPFARKVRIVLEEKRIPHEYIIERGSAPGSRVPQYNPLGKVPTLVLDDGRGLYDSPVIVEYL | -0.108
HMKLGYTVHGNVVTVKAVANGISLYNTIGQKVAESTDGQTVKAPAHGVYILSVQGKSGSRETAKIVI | 0.114
HMKLHQDLQIKVIDAANNKVEFIDTATGTSLATRTLDVNGVSKARGFEATLYGVVEDNDVFHIA | -0.116
HMKLIRIPFILTEGPDSQKITIDVDGDEEFRLGDVFEEDDKLWTVNQILVSGERKAKRSMAGEVMRISALR | -0.696
HMKLNEQSMQVIDRIVDRHRGRPGPVKLMLHDVQKELGYIPFEAMEKIAAASGVSADEVYGVVTFYTQFTT | -1.27
HMKLNETIAEARKRKGLTQEQLAQKLYVTRQAVSRWERGEVVPGIDMLKLIAITLEEPIVHLL | -0.679
HMKLQIQNIEIDKKISELAEGVSAEKLPFLAKLIDRSKLLNDKGEINEDSVKAAIEEVVKAFPDFK | -0.945
HMKLRKINLIGIFGSKTAPSALVRLTNGRVLKVGLGELLDGGRVTAIGRSSLTYNKSGKSITLNMPI | ≥ 0.43
HMKLRYRTQEELLGVAREYRRRGLPLSVIVIDFYHWTKFGDWKFDPAYWPDPVGMVRELRDMGVEAAV | 0.22
HMKLSKKVTDFLAQMPSKSISPKMLANNLGLADDAGDYKHLLKTIAQLEESKAIEVTAAGNIALPQPE | 0.0669
